The values that follow come from article PMC5803496, “The catalytic inactivation of the N-half of human hexokinase 2 and structural and biochemical characterization of its mitochondrial conformation” (Bioscience Reports, 2018).

This series deals with the molecule itself. Description: crystal structure; sitting-drop vapor diffusion, 16% PEG 3350, 0.2 M sodium malonate, 0.1 M Bis-Tris propane pH 8.5, 10% ethylene glycol, 1 mM DTT, 18°C; in complex with glucose and G6P; the dimer is in the asymmetric unit.

B1: Δ16 variant of the wild-type human hexokinase 2 (enzyme, UniProt P52789 17-917, looked up)
chain: DQVQKVDQYLYHMRLSDETLLEISKRFRKEMEKGLGATTHPTAAVKMLPTFVRSTPDGTEHGEFLALDLGGTNFRVLWVKVTDNGLQKVEMENQIYAIPEDIMRGSGTQLFDHIAECLANFMDKLQIKDKKLPLGFTFSFPCHQTKLDESFLVSWTKGFKSSGVEGRDVVALIRKAIQRRGDFDIDIVAVVNDTVGTMMTCGYDDHNCEIGLIVGTGSNACYMEEMRHIDMVEGDEGRMCINMEWGAFGDDGSLNDIRTEFDQEIDMGSLNPGKQLFEKMISGMYMGELVRLILVKMAKEELLFGGKLSPELLNTGRFETKDISDIEGEKDGIRKAREVLMRLGLDPTQEDCVATHRICQIVSTRSASLCAATLAAVLQRIKENKGEERLRSTIGVDGSVYKKHPHFAKRLHKTVRRLVPGCDVRFLRSEDGSGKGAAMVTAVAYRLADQHRARQKTLEHLQLSHDQLLEVKRRMKVEMERGLSKETHASAPVKMLPTYVCATPDGTEKGDFLALDLGGTNFRVLLVRVRNGKWGGVEMHNKIYAIPQEVMHGTGDELFDHIVQCIADFLEYMGMKGVSLPLGFTFSFPCQQNSLDESILLKWTKGFKASGCEGEDVVTLLKEAIHRREEFDLDVVAVVNDTVGTMMTCGFEDPHCEVGLIVGTGSNACYMEEMRNVELVEGEEGRMCVNMEWGAFGDNGCLDDFRTEFDVAVDELSLNPGKQRFEKMISGMYLGEIVRNILIDFTKRGLLFRGRISERLKTRGIFETKFLSQIESDCLALLQVRAILQHLGLESTCDDSIIVKEVCTVVARRAAQLCGAGMAAVVDRIRENRGLDALKVTVGVDGTLYKLHPHFAKVMHETVKDLAPKCDVSFLQSEDGSGKGAALITAVACRIREAGQR
notes: wild type; Crystallised in complex with glucose and glucose-6-phosphate; also called Δ16-HK2; HK2; source: E. coli, Champion pET SUMO expression system, purified (nickel-chelating resin, Superdex 200)
With B1, the binding result is listed as “binds”.
